Results on five molecules are retold here after article PMC10068899 (Cell Reports, 2023).

For assay [1], the target named is human p110γ (catalytic subunit of PI3Kγ), co-expressed with mouse p84 or porcine p101 (human, UniProt P48736 1-1102). Briefly: SEC. On the technique in general: Size exclusion chromatography separates by hydrodynamic size, large species first.
For assay [2], the target named is porcine p110γ (for X-ray crystallography) (porcine, UniProt O02697 1-1102). Briefly: crystal structure.
porcine p110γ (for X-ray crystallography), sequence (O02697 whole entry): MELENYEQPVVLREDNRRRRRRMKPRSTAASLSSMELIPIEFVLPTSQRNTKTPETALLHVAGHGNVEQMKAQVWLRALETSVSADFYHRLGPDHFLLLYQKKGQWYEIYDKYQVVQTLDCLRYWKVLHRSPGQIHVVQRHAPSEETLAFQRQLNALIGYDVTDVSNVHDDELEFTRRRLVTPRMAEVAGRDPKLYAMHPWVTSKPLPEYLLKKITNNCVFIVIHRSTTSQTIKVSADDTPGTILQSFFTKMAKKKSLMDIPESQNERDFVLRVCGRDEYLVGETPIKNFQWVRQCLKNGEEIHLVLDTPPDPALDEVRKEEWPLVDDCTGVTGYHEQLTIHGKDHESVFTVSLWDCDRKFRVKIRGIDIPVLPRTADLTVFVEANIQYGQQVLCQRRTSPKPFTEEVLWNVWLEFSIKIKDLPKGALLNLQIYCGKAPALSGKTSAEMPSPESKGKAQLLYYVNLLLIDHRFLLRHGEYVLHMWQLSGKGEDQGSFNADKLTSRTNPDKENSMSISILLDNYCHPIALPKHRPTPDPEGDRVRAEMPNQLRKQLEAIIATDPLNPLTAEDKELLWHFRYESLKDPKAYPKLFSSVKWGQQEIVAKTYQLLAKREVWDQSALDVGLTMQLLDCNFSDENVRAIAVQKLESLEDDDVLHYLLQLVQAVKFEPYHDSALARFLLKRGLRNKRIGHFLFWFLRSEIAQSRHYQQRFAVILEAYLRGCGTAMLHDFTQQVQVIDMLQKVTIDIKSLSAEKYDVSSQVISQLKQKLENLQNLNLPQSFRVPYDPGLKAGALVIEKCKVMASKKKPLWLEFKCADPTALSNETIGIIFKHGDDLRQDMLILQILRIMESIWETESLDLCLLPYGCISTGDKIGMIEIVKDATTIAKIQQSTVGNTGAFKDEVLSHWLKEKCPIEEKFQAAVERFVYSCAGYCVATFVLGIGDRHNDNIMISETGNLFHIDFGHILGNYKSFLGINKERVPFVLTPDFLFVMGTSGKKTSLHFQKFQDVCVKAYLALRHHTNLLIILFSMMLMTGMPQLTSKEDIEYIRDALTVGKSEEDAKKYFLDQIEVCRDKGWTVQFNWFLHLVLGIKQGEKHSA
In assay [3] the target is human p110γ, biGBac construct co-expressed with human p84 or human p101 (human, UniProt P48736 1-1102). Kind of assay: HDX-MS.
human p110γ, biGBac construct co-expressed with human p84 or human p101, sequence (P48736 whole entry): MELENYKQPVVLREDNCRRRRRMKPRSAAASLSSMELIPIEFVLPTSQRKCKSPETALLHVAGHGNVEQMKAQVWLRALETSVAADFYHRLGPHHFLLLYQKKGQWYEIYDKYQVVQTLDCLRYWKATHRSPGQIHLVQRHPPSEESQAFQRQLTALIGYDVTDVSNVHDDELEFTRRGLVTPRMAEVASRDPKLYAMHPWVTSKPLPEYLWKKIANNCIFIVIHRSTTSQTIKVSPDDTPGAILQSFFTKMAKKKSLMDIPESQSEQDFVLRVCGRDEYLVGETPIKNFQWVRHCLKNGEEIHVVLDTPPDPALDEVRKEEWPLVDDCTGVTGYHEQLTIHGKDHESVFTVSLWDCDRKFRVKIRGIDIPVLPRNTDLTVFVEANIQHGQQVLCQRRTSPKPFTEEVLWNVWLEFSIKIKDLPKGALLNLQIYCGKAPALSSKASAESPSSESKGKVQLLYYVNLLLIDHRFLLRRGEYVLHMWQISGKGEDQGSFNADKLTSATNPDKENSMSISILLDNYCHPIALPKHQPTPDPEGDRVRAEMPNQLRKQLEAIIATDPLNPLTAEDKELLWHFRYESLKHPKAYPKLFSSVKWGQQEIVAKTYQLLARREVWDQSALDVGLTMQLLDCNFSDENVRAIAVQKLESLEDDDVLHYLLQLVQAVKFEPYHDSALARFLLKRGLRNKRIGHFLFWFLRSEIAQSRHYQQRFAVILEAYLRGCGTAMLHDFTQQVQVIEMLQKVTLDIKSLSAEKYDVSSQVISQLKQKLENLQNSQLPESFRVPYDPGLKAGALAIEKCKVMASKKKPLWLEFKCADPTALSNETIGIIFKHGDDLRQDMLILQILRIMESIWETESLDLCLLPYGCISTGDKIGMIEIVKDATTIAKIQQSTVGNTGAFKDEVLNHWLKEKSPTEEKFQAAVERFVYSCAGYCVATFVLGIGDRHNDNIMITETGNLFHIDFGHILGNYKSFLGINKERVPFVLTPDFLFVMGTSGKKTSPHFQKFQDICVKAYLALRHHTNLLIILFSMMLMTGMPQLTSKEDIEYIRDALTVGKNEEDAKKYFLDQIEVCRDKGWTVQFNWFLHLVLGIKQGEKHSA

human p110γ (catalytic subunit of PI3Kγ), co-expressed with mouse p84 or porcine p101, sequence (P48736 whole entry): as above

B1: mouse p84 (regulatory subunit of PI3Kγ), co-expressed with human p110γ (natural protein)
chain: MESSDVELDFQRSVQAVLRELNTPNPALQSNQGMWRWSLHKKVERNPGKSSILVRILLRELEKAESEDGRRVIIPLLLTLMSVLTKATGIPEDLYHRAYTFCTRLLTLPAPYSTVALDCAIRLKTETAVPGTLYQRTVIAEQNLISELYPYQERVFLFVDPELVSASVCSALLLEIQAAQEQQTPEACMRHVVSHALQAALGEACHTGALNRKLQASSRRVLEYYFHAVVAAIEQVASEDSPSRLGHLEKMEEIYCSLLGPATTRRHCVGDLLQDRLPSIPLPSPYITFHLWTDQEQLWKELVLFLRPRSQLRLSADLDALDLQGFRLDRDLARVSTDSGIERDLPLGSDELPDPSSSEMERAALQRKGGIKKRVWPPDFFMPGSWDGPPGLHRRTGRPSGDGELLPGVSRVHTARVLVLGDDRMLGRLAQAYYRLRKRETKKFCLTPRLSLQLYYIPVLAPQVTGQDPEASRKPELGELASFLGRVDPWYESTVNTLCPAILKLAEMPPYLDTSRTVDPFILDVITYYVRMGTQPIYFQLYKVKIFTSLSHDPTEDIFLTELKVKIQDSKSPKEGSSPRRRGAAEGTGAELSMCYQKALLSHRPREVTVSLRATGLVLKAIPAGDTEVSGFFHCTSPNAASATDCSCLHVSVTEVVKSSNLAGRSFTTSTNTFRTSSIQVQSQDQRLLTLWLDKDGRRTFRDVVRFEVSPCPEPCSRTQKSKTSALNSHGQETEKNMAKPNSLLMPINTFSGIIQ
Regarding B1, the binding result in assay [1] is recorded as “binds”.

B2: EE-tagged mouse p84 (for X-ray crystallography) (natural protein)
chain: B1 chain
For the molecule B2, the binding result in assay [2] is given as “binds”.

B3: human p84 (regulatory subunit of PI3Kγ), co-expressed with human p110γ (natural protein)
chain: MESSDVELDLQRSVQAVLRELSTQAPALQSNQGMWRWSLHKKVERDPGKSPVLVRILLRELEKAESQDLRHVIIPLLHTVMYVLTKATGITEELYQRIYAFCTRLLTLPTPYCTVALDCAIRLKTEMAVPGTLYQRMVIAEQNLTNELYPYQERVFLFVDPELVSASVCSALLLEIEAAQAQQTPETCMRHVVSHALQAALGEACHAGALHRKLQASPRRTLEHYFHAVVAALEQMASEASPSREGHVERLEEIYCSLLGPAAGRCGGDLVQERPPSIPLPSPYITFHLWTGEEQLWKELVLFLRPRSQLRLSADLEVLDLQGLRPDRELARVSVLSTDSGIERDLPTGADELPAPGSPEMERAGLQRKGGIKKRAWPLDFLMPGSWDGPPGLHRRTGRPSGDGEMLPGVSRLHTARVLVLGDDRMLGRLAQAYHRLRKRETQKFCLTPRLSLQLYYIPVLAPEKPAASRQPELGELATFLGRVDPWYQSNVNTLCPAIHKLAEMPPSLDTSRTVDPFILDVITYYIRMGTQPIYFQIYTVKIFFSDLSQDPTEDIFLIELKVKIQDSKFPKDGFSPRRRGVAEGPGAELSLCYQKALLSHRPREVTVSLRATGLILKAIPASDTEVSGSSHCPLPAAPVTDHTCLNVNVTEVVKSSNLAGKSFSTVTNTFRTNNIQIQSRDQRLLTLSLDKDDQRTFRDVVRFEVAPCPEPCSGAQKSKAPWLNLHGQQEVEAIKAKPKPLLMPINTFSGIVQ
On to B3, for which the binding result in assay [3] is listed as “binds”.

B4: porcine p101 (regulatory subunit of PI3Kγ), co-expressed with human p110γ (natural protein)
chain: MQPGATTCTEDRIQHALERCLHGLSLSRRSTSWSAGLCLNCWSLQELVSRDPGHFLILLEQILQKTREVQEKGTYDLLAPLALLFYSTVLCTPHFPPDSDLLLKAARTYHRFLTWPVPYCSICQELLTFIDAELKAPGISYQRLVRAEQGLSTRSHRSSTVTVLLLNPVEVQAEFLDVADKLSTPGPSPHSAYITLLLHAFQATFGAHCDLSGLHRRLQSKTLAELEAIFTETAEAQELASGIGDAAEARQWLRTKLQAVGEKAGFPGVLDTAKPGKLRTIPIPVARCYTYSWNQDSFDILQEILLKEQELLQPEILDDEEDEDEEDEEEDLDADGHCAERDSVLSTGSAASHASTLSLASSQASGPTLSRQLLTSFVSGLSDGVDSGYMEDIEESAYERPRRPGGHERRGHRRPGQKFNRIYKLFKSTSQMVLRRDSRSLEGSPDSGPPLRRAGSLCSPLDSPTLPPSRAQGSRSLPQPKLSPQLPGWLLAPASRHQRRRPFLSGDEDPKASTLRVVVFGSDRISGKVVRAYSNLRRLENNRPLLTRFFKLQFFYVPVKRSRGTGTPTSPAPRSQTPPLPTDAPRHPGPAELGAAPWEESTNDISHYLGMLDPWYERNVLGLMHLPPEVLCQSLKAEPRPLEGSPAQLPILADMLLYYCRFAARPVLLQVYQTELTFITGEKTTEIFIHSLELGHSAATRAIKASGPGSKRLGIDGDREAVPLTLQIIYSKGAISGRSRWSNMEKLCTSVNLSKACRQQEELDSSTEALTLNLTEVVKRQTPKSKKGFNQISTSQIKVDKVQIIGSNSCPFAVCLDQDERKILQSVIRCEVSPCYKPEKSSLCPPPQRPSYPPAPATPDLCSLLCLPIMTFSGALP
As to B4, the binding result in assay [1] is “binds”.

B5: human p101 (regulatory subunit of PI3Kγ), co-expressed with human p110γ (natural protein)
chain: MQPGATTCTEDRIQHALERCLHGLSLSRRSTSWSAGLCLNCWSLQELVSRDPGHFLILLEQILQKTREVQEKGTYDLLTPLALLFYSTVLCTPHFPPDSDLLLKAASTYHRFLTWPVPYCSICQELLTFIDAELKAPGISYQRLVRAEQGLPIRSHRSSTVTVLLLNPVEVQAEFLAVANKLSTPGHSPHSAYTTLLLHAFQATFGAHCDVPGLHCRLQAKTLAELEDIFTETAEAQELASGIGDAAEARRWLRTKLQAVGEKAGFPGVLDTAKPGKLHTIPIPVARCYTYSWSQDSFDILQEILLKEQELLQPGILGDDEEEEEEEEEVEEDLETDGHCAERDSLLSTSSLASHDSTLSLASSQASGPALSRHLLTSFVSGLSDGMDSGYVEDSEESSSEWPWRRGSQERRGHRRPGQKFIRIYKLFKSTSQLVLRRDSRSLEGSSDTALPLRRAGSLCSPLDEPVSPPSRAQRSRSLPQPKLGTQLPSWLLAPASRPQRRRPFLSGDEDPKASTLRVVVFGSDRISGKVARAYSNLRRLENNRPLLTRFFKLQFFYVPVKRSHGTSPGACPPPRSQTPSPPTDSPRHASPGELGTTPWEESTNDISHYLGMLDPWYERNVLGLMHLPPEVLCQQSLKAEAQALEGSPTQLPILADMLLYYCRFAARPVLLQVYQTELTFITGEKTTEIFIHSLELGHSAATRAIKASGPGSKRLGIDGDREAVPLTLQIIYSKGAISGRSRWSNLEKVCTSVNLNKACRKQEELDSSMEALTLNLTEVVKRQNSKSKKGFNQISTSQIKVDKVQIIGSNSCPFAVCLDQDERKILQSVVRCEVSPCYKPEKSDLSSPPQTPPDLPAQAAPDLCSLLCLPIMTFSGALP
B5: the binding result in assay [3] is “binds”.
